Data as given in the nanobody polyreactivity screen of Harvey et al. (2022).

Experiment: yeast display, Sf9 membrane polyspecificity reagent, FACS + sequencing; frameworks hold sequencing errors
How it was run: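 After 36–48 hours of galactose induction, yeast (Saccharomyces cerevisiae BJ5465) displaying a synthetic nanobody library were stained at 4 °C for 1 hour with 10% biotinylated, detergent-solubilized Sf9 membrane reagent. Streptavidin microbeads enriched the stained cells before FACS sorting into low and high (top ~1%) gates on anti-HA and streptavidin fluorescence. Each clone's polyreactivity label reflects its gate of origin.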

Sequence | polyreactivity (PSR sort gate)
QVQLVESGGGLVQAGGSLRLSCAASGRIFRHYAMGWYRQAPWKERELVATITSGGRTNYADSVKGRFTISRDNAKNTVYLQMNSLKPEDTAVYYGAVDTWGSSWYDLFRETSDYWGQGTQVTVSS | low polyreactivity
QVQLVESGGGLVQAGGSLRLSCAASGRIFRINAMGWYRQAPGKERELVASISRRGGNTYYADSVKGRFTISRDNAKNTVYLQMNSLKPEDTAVYYCAADTYQERTFDYWGQGTQVTVSS | low polyreactivity
QVQLVESGGGLVQAGGSLRLSCAASGRIFRIYTMGWYREAPGKERELVAAISKSGGGTYYADSVKGRFTISRDNAKNTVYLQMNSLKPEDTAVYYCAAVSPNTAYDYWGQGTQVTVSS | high polyreactivity
QVQLVESGGGLVQAGGSLRLSCAASGRIFRLYAMGWYRQAPGKERELVAAIRSATRTTYADSVKGRFTISRDNAKNTVYLQMNSLKPEDTAFYYCAARLWRYSDVSKYYSWGQGTQVTVSS | high polyreactivity
QVQLVESGGGLVQAGGSLRLSCAASGRIFRLYTMGWYRQAPGKERELVAAISSAGSTKYADSVKGRFTISRDNAKNTVYLQMNSLKPEDTAVYYCAAGRYYYRSGFYTPVRYYSWGQGTQVTVSS | high polyreactivity
QVQLVESGGGLVQAGGSLRLSCAASGRIFRNYAMGWYRQAPGKERELVAAISVSGGRTYYADSVKGRFTISRDNAKNTVYLQMNSLKPEDTAVYYCAARTGRQGYSRGYNSWGQGTQVTVSS | high polyreactivity
QVQLVESGGGLVQAGGSLRLSCAASGRIFRNYAMGWYRQATGKERELVAAISTRSGSTYYADSVKGRSTISRDNAKNTVYLQMNSLKPEDTAVYYCNKVSVGRYYALYYWGQGTQVTVAS | high polyreactivity
QVQLVESGGGLVQAGGSLRLSCAASGRIFRPNAMGWYRQAPGKEREFVAAITSSSGTTYYADSVKGRFTISRDNAKNTVYLQMNSLKPEDTAVYYCAAAQRSVRLKFGYWGQGTQVTVSS | high polyreactivity
QVQLVESGGGLVQAGGSLRLSCAASGRIFRPNAMGWYRQAPGKERELVAAISYSGATTYYADSVKGRFTISRDNAKNTVYLQMNSLKPEDTAVYYCAADTPDAPDYSGFYYWGQGTKVTVSS | low polyreactivity
QVQLVESGGGLVQAGGSLRLSCAASGRIFRPNAMGWYRQAPGKERELVATITSDGSTKYADSVKGRFTISRDNAKNTVYLQMNSLKPEDTAVYYCAVRWARRYRYYYWGQGTQVTVSS | high polyreactivity
QVQLVESGGGLVQAGGSLRLSCAASGRIFRPYAMGWYRQAPGKERELVAGITSSGGSTYYADSVKGRFTISRDNAKNTVYLQMNSLKPEDTAVYYCAADYGWGSGFEYDYWGQGTQVTVSS | low polyreactivity
QVQLVESGGGLVQAGGSLRLSCAASGRIFRRNAIGWYRQAPGKERELEAAISSGCGSKYYADSVKGRFTISRDNAKNTVYLQMNSLKPEDTAVYYCNTVFYYDDVSQAHDYWGQGTQVTVSS | high polyreactivity
QVQLVESGGGLVQAGGSLRLSCAASGRIFRRNTKGWYRQAPGKERELVAAITSAGGSTYADSVKGRFTISRDNAKNTVYFQMNSLKPEDTAVYYCATYVAYHRGYRTYDHWAQGTQVTVSS | low polyreactivity
QVQLVESGGGLVQAGGSLRLSCAASGRIFRRYAMGWYRQAPGKERELVAAISSGGSTNYADSVKGRFTLSRDNAKNTVYLQMNSLKPEDTAVYYCAARRTATTSRAYYYWGQGTQVTVSS | high polyreactivity
QVQLVESGGGLVQAGGSLRLSCAASGRIFRRYAMGWYRQAPGKERELVAAITSGGSTYADSVKGRFTISRDNAKNTVYLQMNSLKPEDTAVYYCAADDAQGFDYWGQGTQVTVSS | high polyreactivity
QVQLVESGGGLVQAGGSLRLSCAASGRIFRRYAMGWYRQAPGKERELVAALTRSGGSTYYADSVKGRFTISRDNAKNTVYLQMNSLKPEDTAVYYCYAPSSLGTDYDYWGQGTQVTVSS | high polyreactivity
QVQLVESGGGLVQAGGSLRLSCAASGRIFRSNAMGWYRQAPGKERELVAAISGSGSTTNYADSVKGRFTISRDNAKNTVYLQMNSLKPEDTAVYYCATGKRGVSGRGFRYDYWGQGTQVTVSS | high polyreactivity
QVQLVESGGGLVQAGGSLRLSCAASGRIFRSNVMGWYRQAPGKERELVAAITGRGSSTYYADSVKGRFTISRDNAKNTVYLQMNSLKPEDTAVYYCAKASRYWSLYYWGQGTQVTVSS | high polyreactivity
QVQLVESGGGLVQAGGSLRLSCAASGRIFRSYALGWYRQAPGKERELVAAISSSDGSTYYADSVKGRFTISRDNAKNTVYLQMNSLKPEDTAVYYCNAEQVCYTYGRYPEWYLYGYWGQGTQVTVSS | low polyreactivity
QVQLVESGGGLVQAGGSLRLSCAASGRIFRSYAMGWYRQAPGKERELVAAISGSGGSTYYADSVKGRFTISRDNAKNTVYLQMNSLKPEDTAVYYCNRARGASYHGQSDYWGQGTQVTVSS | high polyreactivity
QVQLVESGGGLVQAGGSLRLSCAASGRIFRSYAMGWYRQAPGKERELVAAISSGVITYYADSVKGRFTISRDNEKNTVYLQMNSLKPEDTAVYYCNARWRFLYDYWGQGTQVTVSS | high polyreactivity
QVQLVESGGGLVQAGGSLRLSCAASGRIFRVNAMGWYRQAPGKERELVAAISRRGGRTYYADSVKGRFTISRDNAKNTVYLQMNSMKPEDTAVYYCNADSVTSAGSLGRAEYGYWVQGTQVTVSS | high polyreactivity

Sequence | polyreactivity (PSR sort gate)
QVQLVESGGGLVQAGGSLRLSCAASGRIFRVNAMGWYRQAPGKERELVARIDSGGRTNYADSVKGRFTISRDNAKNTVYLQMTSLKPEDTAVYYCARVFSLARSWYRYYYWGQGTQVTVSS | high polyreactivity
QVQLVESGGGLVQAGGSLRLSCAASGRIFRVYALGWSRQAPGKERELVAAITSGGSTYYADSVKGRFTISRDNAKNTVYLQMNSLKPEDSAVYYCAAKRFRYRPGDYWGQGTQVTVSS | high polyreactivity
QVQLVESGGGLVQAGGSLRLSCAASGRIFRVYAMGWSRQAPGKERELVASITRTGGGTYYADSVKGRFTNSRDNAKNTVYLQMNRLKPEDPAVYYCAADAFIPGYQLHYHWGQGTQVTVSS | low polyreactivity
QVQLVESGGGLVQAGGSLRLSCAASGRIFRVYAMGWYRPAPGKERELVATIRRGSSTYYADSVKGRFTISRDNAKNTVYLQMNSLKPEDTAVYYCADRSSRRGPISEGDYWGQGTQVTVSS | high polyreactivity
QVQLVESGGGLVQAGGSLRLSCAASGRIFRVYAMGWYRQAPGKERELVAAISSSGGSTYYADSVKGRFTISRDNAKNTVYLQMNSLKPEDTAVYYCAAGGLHTIQRPGYYYWGLGTQVTVSS | low polyreactivity
QVQLVESGGGLVQAGGSLRLSCAASGRIFRVYAMGWYRQAPGKERELVAAISWSGGRTYYADSVKGRFTISRDNAKNTVYLQMNSLKPEDTAVYYCAAERGGPTYYSGGDYDYWGQGTQVTVSS | high polyreactivity
QVQLVESGGGLVQAGGSLRLSCAASGRIFRWYAMGWYRQAPGKERELVATISSSGRTNYADSVKGRFTISRDNAKNTVYLQMNSLKPEDTAVYYCNADGGDWFGYVGMDYWGQGTQVTVSS | high polyreactivity
QVQLVESGGGLVQAGGSLRLSCAASGRIFRWYAMGWYRQAPGKERELVATISSTGGSTYYADSVKGRFTISRDNAKNTDYLQMNSLKPEDTAVYDCNAVVYGIFLYAWYDYWGQGTQVTVSS | low polyreactivity
QVQLVESGGGLVQAGGSLRLSCAASGRIFRYNALGWYRQAPGKERELVAAITWNGASTFYADSVKGRFTISRDNAKNTVYLQMNSLKPEDTAVYYCATVRDISGYLYWSYNLYDYWGQGTQVTVSS | high polyreactivity
QVQLVESGGGLVQAGGSLRLSCAASGRIFRYNAMGWYRPAPGKERELVAAIRFSGGSTYYADSVKGRFTISRDHAKNTVYLQMNSLKPEDTAVYDCAKVYFRVQSGMDYWGQGTQVTVSS | low polyreactivity
QVQLVESGGGLVQAGGSLRLSCAASGRIFRYNAMGWYRQAPGKERELVAAISYRTGSTHYADSVKGRFTISRDNAKNTVYLQMNILKPEDTAVYYCAYVPGYCYWGQGTQVTVSS | low polyreactivity
QVQLVESGGGLVQAGGSLRLSCAASGRIFRYNAMGWYRQAPGKERELVATISWSGGRTYYADSVKGRFTISRDNAKNTVYLQMNSLKPEDNAVYYCAAYSYRGFGEYDYWGQGTQVTVSS | high polyreactivity
QVQLVESGGGLVQAGGSLRLSCAASGRIFRYYAMGGYRQAPGKERELVATISRSGGSTFYAYSVKGRFTISRDNAKNTVYLQMNSLKPEDTAVYYCNARYQTGGYGYWGQGTQVTVSS | high polyreactivity
QVQLVESGGGLVQAGGSLRLSCAASGRIFRYYAMGWYRQAPGKERELVAAISGGGGTYYADSVKGRFTISRDNATNTVYLQMNSLKPEDTAVYYCNAETYDYWFGYDYWGQGTQVTVSS | high polyreactivity
QVQLVESGGGLVQAGGSLRLSCAASGRIFRYYAMGWYRQAPGKERELVAAISGSGGSTYYADSVKGRFTISRDNAKNTVYLQMNSLKPEDTAVYYCNARYRIPSGEGDHWGQGTQVTVSS | low polyreactivity
QVQLVESGGGLVQAGGSLRLSCAASGRIFRYYAMGWYRQAPGKERELVAAISYSGGRTYYADSVKGRFTISRDNAKNTVYLQMNSLKPEDTAVYYCNARARSRKFYYWGQGTQVTVSS | high polyreactivity
QVQLVESGGGLVQAGGSLRLSCAASGRIFRYYAMGWYRQAPGKERELVAAITSSGSNTYYADSVKGRFTISRDNAKNTVYLQMNSLKPEDTAVYYCNARWRLVSSGFDGGYWGQGTQVTVSS | high polyreactivity
QVQLVESGGGLVQAGGSLRLSCAASGRIFRYYAMGWYRQAPGKERELVASITRRGGSTYYADSVKGRFTISRDNAKNTVYLQMNSLKPEDTAVYYCAADTYYNLGNYWGQGTQVTVSS | high polyreactivity
QVQLVESGGGLVQAGGSLRLSCAASGRIFRYYAMGWYRQAPGKERELVASITSGARTSYADSVKGRFTISRDNAKNTVYLQMNSLKPEDTAVYYCAPGYSYSPGRMGYWGQGTQVTVSS | high polyreactivity
QVQLVESGGGLVQAGGSLRLSCAASGRIFRYYAMGWYRQAPGKERELVATISGRGGSTYYADSVKGRFTISRDNAKNTVYLQMNSLKPEDTAVYYCNTVSTRYIYDYWGQGTQVTVSS | high polyreactivity
QVQLVESGGGLVQAGGSLRLSCAASGRIFRYYAMGWYRQAPGQERELVAAITWSGGSTYYADSVKGRFTISRDNAKNTVYLQMNSLKPEDTAVYYCNAKSYQPFHGDYWGQGTQVTVSS | low polyreactivity
